We go through 15 substances from the supplement of paper PMC5998384.

Data set [1] concerns HeLa Kyoto. As to the kind of experiment: thermal stability score vs G1/S (z-score of summed log2 fold changes over temperatures); higher = more thermally stable than in G1/S.
Data set [2] concerns HeLa Kyoto. Briefly: melting temperature (median over replicates), in situ; higher = more thermally stable.
The mark [3] stands for this setting: cell cycle stage: early G1 (4.5 h after nocodazole release).
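Throughout, for melting temperature (median over replicates), in situ: HeLa Kyoto cells synchronized by double thymidine or nocodazole block, proteins quantified by TMT10plex mass spectrometry, three independent biological replicates.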
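Throughout, for thermal stability score vs G1/S (z-score of summed log2 fold changes over temperatures): synchronized HeLa Kyoto cells, proteins quantified by TMT10plex mass spectrometry, three biological replicates, mitosis taken 0.5 h after nocodazole release, G1/S directly after double thymidine block.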

Chain of GORASP1 (chain, as listed by the source): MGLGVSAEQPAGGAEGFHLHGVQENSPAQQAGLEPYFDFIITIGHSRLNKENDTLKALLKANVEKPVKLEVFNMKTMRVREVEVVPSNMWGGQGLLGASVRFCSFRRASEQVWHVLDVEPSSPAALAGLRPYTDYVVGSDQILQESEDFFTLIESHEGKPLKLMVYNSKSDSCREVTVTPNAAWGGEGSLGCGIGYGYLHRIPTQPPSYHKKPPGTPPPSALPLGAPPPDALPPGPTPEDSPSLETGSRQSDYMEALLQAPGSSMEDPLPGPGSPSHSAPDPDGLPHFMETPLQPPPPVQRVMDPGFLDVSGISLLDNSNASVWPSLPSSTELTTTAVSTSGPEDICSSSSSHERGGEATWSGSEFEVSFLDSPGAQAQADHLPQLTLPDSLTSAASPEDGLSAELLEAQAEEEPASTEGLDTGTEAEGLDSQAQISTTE

“MGQCGITSSKTVLVFLNLIFWGAAGILCYVGAYVFITYDDYDHFFEDVYTLIPAVVIIAVGALLFIIGLIGCCATIRESRCGLATFVIILLLVFVTEVVVVVLGYVYRAKVENEVDRSIQKVYKTYNGTNPDAASRAIDYVQRQLHCCGIHNYSDWENTDWFKETKNQSVPLSCCRETASNCNGSLAHPSDLYAEGCEALVVKKLQEIMMHVIWAALAFAAIQLLGMLCACIVLCRRSRDPAYELLITGGTYA [TSPAN3]”: the figures for the thermal stability score in the data set on HeLa Kyoto [1] (setting [3]) and in the data set on HeLa Kyoto [1] (cell cycle stage: mitosis) were -0.556 and -0.785, respectively. In the same order, the values of “MAGVSACIKYSMFTFNFLFWLCGILILALAIWVRVSNDSQAIFGSEDVGSSSYVAVDILIAVGAIIMILGFLGCCGAIKESRCMLLLFFIGLLLILLLQVATGILGAVFKSKSDRIVNETLYENTKLLSATGESEKQFQEAIIVFQEEFKCCGLVNGAADWGNNFQHYPELCACLDKQRPCQSYNGKQVYKETCISFIKDFLAKNLIIVIGISFGLAVIEILGLVFSMVLYCQIGNK [TSPAN8]” are 1.86 and -1.57. In the same order, the values of “MGKNKLLHPSLVLLLLVLLPTDASVSGKPQYMVLVPSLLHTETTEKGCVLLSYLNETVTVSASLESVRGNRSLFTDLEAENDVLHCVAFAVPKSSSNEEVMFLTVQVKGPTQEFKKRTTVMVKNEDSLVFVQTDKSIYKPGQTVKFRVVSMDENFHPLNELIPLVYIQDPKGNRIAQWQSFQLEGGLKQFSFPLSSEPFQGSYKVVVQKKSGGRTEHPFTVEEFVLPKFEVQVTVPKIITILEEEMNVSVCGLYTYGKPVPGHVTVSICRKYSDASDCHGEDSQAFCEKFSGQLNSHGCFYQQVKTKVFQLKRKEYEMKLHTEAQIQEEGTVVELTGRQSSEITRTITKLSFVKVDSHFRQGIPFFGQVRLVDGKGVPIPNKVIFIRGNEANYYSNATTDEHGLVQFSINTTNVMGTSLTVRVNYKDRSPCYGYQWVSEEHEEAHHTAYLVFSPSKSFVHLEPMSHELPCGHTQTVQAHYILNGGTLLGLKKLSFYYLIMAKGGIVRTGTHGLLVKQEDMKGHFSISIPVKSDIAPVARLLIYAVLPTGDVIGDSAKYDVENCLANKVDLSFSPSQSLPASHAHLRVTAAPQSVCALRAVDQSVLLMKPDAELSASSVYNLLPEKDLTGFPGPLNDQDNEDCINRHNVYINGITYTPVSSTNEKDMYSFLEDMGLKAFTNSKIRKPKMCPQLQQYEMHGPEGLRVGFYESDVMGRGHARLVHVEEPHTETVRKYFPETWIWDLVVVNSAGVAEVGVTVPDTITEWKAGAFCLSEDAGLGISSTASLRAFQPFFVELTMPYSVIRGEAFTLKATVLNYLPKCIRVSVQLEASPAFLAVPVEKEQAPHCICANGRQTVSWAVTPKSLGNVNFTVSAEALESQELCGTEVPSVPEHGRKDTVIKPLLVEPEGLEKETTFNSLLCPSGGEVSEELSLKLPPNVVEESARASVSVLGDILGSAMQNTQNLLQMPYGCGEQNMVLFAPNIYVLDYLNETQQLTPEIKSKAIGYLNTGYQRQLNYKHYDGSYSTFGERYGRNQGNTWLTAFVLKTFAQARAYIFIDEAHITQALIWLSQRQKDNGCFRSSGSLLNNAIKGGVEDEVTLSAYITIALLEIPLTVTHPVVRNALFCLESAWKTAQEGDHGSHVYTKALLAYAFALAGNQDKRKEVLKSLNEEAVKKDNSVHWERPQKPKAPVGHFYEPQAPSAEVEMTSYVLLAYLTAQPAPTSEDLTSATNIVKWITKQQNAQGGFSSTQDTVVALHALSKYGAATFTRTGKAAQVTIQSSGTFSSKFQVDNNNRLLLQQVSLPELPGEYSMKVTGEGCVYLQTSLKYNILPEKEEFPFALGVQTLPQTCDEPKAHTSFQISLSVSYTGSRSASNMAIVDVKMVSGFIPLKPTVKMLERSNHVSRTEVSSNHVLIYLDKVSNQTLSLFFTVLQDVPVRDLKPAIVKVYDYYETDEFAIAEYNAPCSKDLGNA [A2M]” are -2.38 and -0.965.

With “MNPGFDLSRRNPQEDFELIQRIGSGTYGDVYKARNVNTGELAAIKVIKLEPGEDFAVVQQEIIMMKDCKHPNIVAYFGSYLRRDKLWICMEFCGGGSLQDIYHVTGPLSELQIAYVSRETLQGLYYLHSKGKMHRDIKGANILLTDNGHVKLADFGVSAQITATIAKRKSFIGTPYWMAPEVAAVERKGGYNQLCDLWAVGITAIELAELQPPMFDLHPMRALFLMTKSNFQPPKLKDKMKWSNSFHHFVKMALTKNPKKRPTAEKLLQHPFVTQHLTRSLAIELLDKVNNPDHSTYHDFDDDDPEPLVAVPHRIHSTSRNVREEKTRSEITFGQVKFDPPLRKETEPHHELPDSDGFLDSSEEIYYTARSNLDLQLEYGQGHQGGYFLGANKSLLKSVEEELHQRGHVAHLEDDEGDDDESKHSTLKAKIPPPLPPKPKSIFIPQEMHSTEDENQGTIKRCPMSGSPAKPSQVPPRPPPPRLPPHKPVALGNGMSSFQLNGERDGSLCQQQNEHRGTNLSRKEKKDVPKPISNGLPPTPKVHMGACFSKVFNGCPLKIHCASSWINPDTRDQYLIFGAEEGIYTLNLNELHETSMEQLFPRRCTWLYVMNNCLLSISGKASQLYSHNLPGLFDYARQMQKLPVAIPAHKLPDRILPRKFSVSAKIPETKWCQKCCVVRNPYTGHKYLCGALQTSIVLLEWVEPMQKFMLIKHIDFPIPCPLRMFEMLVVPEQEYPLVCVGVSRGRDFNQVVRFETVNPNSTSSWFTESDTPQTNVTHVTQLERDTILVCLDCCIKIVNLQGRLKSSRKLSSELTFDFQIESIVCLQDSVLAFWKHGMQGRSFRSNEVTQEISDSTRIFRLLGSDRVVVLESRPTDNPTANSNLYILAGHENSY [MAP4K3]”, the thermal stability score in the data set with HeLa Kyoto [1] (setting [3]) amounted to 0.473; in the data set on HeLa Kyoto [1] (cell cycle stage: mitosis), 0.693. Regarding “MVRFKHRYLLCELVSDDPRCRLSLDDRVLSSLVRDTIARVHGTFGAAACSIGFAVRYLNAYTGIVLLRCRKEFYQLVWSALPFITYLENKGHRYPCFFNTLHVGGTIRTCQKFLIQYNRRQLLILLQNCTDEGEREAIQKSVTRSCLLEEEEESGEEAAEAME [POP5]”, the thermal stability score was -0.00794 in the data set on HeLa Kyoto [1] (setting [3]) and -2.6 in the data set on HeLa Kyoto [1] (cell cycle stage: mitosis).

For the substance GORASP1, the thermal stability score was found to be 0.552 in the data set on HeLa Kyoto [1] (setting [3]) and 0.301 with HeLa Kyoto [1] (cell cycle stage: mitosis). Regarding “MKLVFLVLLFLGALGLCLAGRRRSVQWCAVSQPEATKCFQWQRNMRKVRGPPVSCIKRDSPIQCIQAIAENRADAVTLDGGFIYEAGLAPYKLRPVAAEVYGTERQPRTHYYAVAVVKKGGSFQLNELQGLKSCHTGLRRTAGWNVPIGTLRPFLNWTGPPEPIEAAVARFFSASCVPGADKGQFPNLCRLCAGTGENKCAFSSQEPYFSYSGAFKCLRDGAGDVAFIRESTVFEDLSDEAERDEYELLCPDNTRKPVDKFKDCHLARVPSHAVVARSVNGKEDAIWNLLRQAQEKFGKDKSPKFQLFGSPSGQKDLLFKDSAIGFSRVPPRIDSGLYLGSGYFTAIQNLRKSEEEVAARRARVVWCAVGEQELRKCNQWSGLSEGSVTCSSASTTEDCIALVLKGEADAMSLDGGYVYTAGKCGLVPVLAENYKSQQSSDPDPNCVDRPVEGYLAVAVVRRSDTSLTWNSVKGKKSCHTAVDRTAGWNIPMGLLFNQTGSCKFDEYFSQSCAPGSDPRSNLCALCIGDEQGENKCVPNSNERYYGYTGAFRCLAENAGDVAFVKDVTVLQNTDGNNNEAWAKDLKLADFALLCLDGKRKPVTEARSCHLAMAPNHAVVSRMDKVERLKQVLLHQQAKFGRNGSDCPDKFCLFQSETKNLLFNDNTECLARLHGKTTYEKYLGPQYVAGITNLKKCSTSPLLEACEFLRK [LTF]”, the thermal stability score in the data set with HeLa Kyoto [1] (setting [3]) is -3.21; with HeLa Kyoto [1] (cell cycle stage: mitosis), -1.19.

Take “MAAAEEGCSVGAEADRELEELLESALDDFDKAKPSPAPPSTTTAPDASGPQKRSPGDTAKDALFASQEKFFQELFDSELASQATAEFEKAMKELAEEEPHLVEQFQKLSEAAGRVGSDMTSQQEFTSCLKETLSGLAKNATDLQNSSMSEEELTKAMEGLGMDEGDGEGNILPIMQSIMQNLLSKDVLYPSLKEITEKYPEWLQSHRESLPPEQFEKYQEQHSVMCKICEQFEAETPTDSETTQKARFEMVLDLMQQLQDLGHPPKELAGEMPPGLNFDLDALNLSGPPGASGEQCLIM [G3V3G9|DCAF8]”: the thermal stability score in the data set with HeLa Kyoto [1] (setting [3]) was 0.212; with HeLa Kyoto [1] (cell cycle stage: mitosis), -1. In the same order, the values of “MSVPGPYQAATGPSSAPSAPPSYEETVAVNSYYPTPPAPMPGPTTGLVTGPDGKGMNPPSYYTQPAPIPNNNPITVQTVYVQHPITFLDRPIQMCCPSCNKMIVSQLSYNAGALTWLSCGSLCLLGCIAGCCFIPFCVDALQDVDHYCPNCRALLGTYKRL [LITAF]” are -0.592 and -0.943. In the same order, the values of “MAQRAVWLISHEPGTPLCGTVRFSRRYPTVEKRARVFNGASYVPVPEDGPFLKALLFELRLLDDDKDFVESRDSCSRINKTSIYGLLIGGEELWPVVAFLKNDMIYACVPLVEQTLSPRPPLISVSGVSQGFEFLFGIQDFLYSGQKNDSELNTKLSQLPDLLLQACPFGTLLDANLQNSLDNTNFASVTQPQKQPAWKTGTYKGKPQVSISITEKVKSMQYDKQGIADTWQVVGTVTCKCDLEGIMPNVTISLSLPTNGSPLQDILVHPCVTSLDSAILTSSSIDAMDDSAFSGPYKFPFTPPLESFNLCFYTSQVPVPPILGFYQMKEEEVQLRITINLKLHESVKNNFEFCEAHIPFYNRGPITHLEYKTSFGQLEVFREKSLLIWIIGQKFPKSMEISLSGTVTFGAKSHEKQPFDPICTGETAYLKLHFRILDYTLTGCYADQHSVQVFASGKPKISAHRKLISSDYYIWNSKAPAPVTYGSLLL [AP5M1]” are 2.33e-19 and -1.74e-18. In the same order, the values of DENND4B are -0.499 and -0.617. In the case of TTC3, the results for the thermal stability score in the data set with HeLa Kyoto [1] (setting [3]) and with HeLa Kyoto [1] (cell cycle stage: mitosis) were 0.321 and -0.39, respectively. In the case of “MAAAELADTQLMLGVGLIEKDTNGEVLWVWCYPSTTATLRNLLLRKCCLTDENKLLHPFVFGQYRRTWFYITIIEVPDSSILKKVTHFSIVLTAKDFNPEKYAAFTRILCRMYLKHGSPVKMMESYIAVLTKGICQSEENGSFLSKDFDARKAYPAGSIKDIVSQFGMETVILHTALMLKKRIVVYHPKIEAVQEFTRTLPALVWHRQDWTILHSYVHLNADELEALQMCTGYVAGFVDLEVSNRPDLYDVFVNLAESEITIAPLAKEAMAMGKLHKEMGQLIVQSAEDPEKSESQVIQDIALKTREIFTNLAPFSEVSADGEKRVLNLEALKQKRFPPATENFLYHLAAAEQMLKI [FAM45BP]”, the melting temperature in the data set with HeLa Kyoto [2] (cell cycle stage: G1/S) came out at 50.6 °C; in the data set on HeLa Kyoto [2] (cell cycle stage: mitosis), 50.5 °C.

“MSKRNQVSYVRPAEPAFLARFKERVGYREGPTVETKRIQPQPPDEDGDHSDKEDEQPQVVVLKKGDLSVEEVMKIKAEIKAAKADEEPTPADGRIIYRKPVKHPSDEKYSGLTASSKKKKPNEDEVNQDSVKKNSQKQIKNSSLLSFDNEDENE [KIAA1143]” showed a melting temperature in the data set on HeLa Kyoto [2] (cell cycle stage: mitosis) of 52 °C. Take “MGLELFLDLVSQPSRAVYIFAKKNGIPLELRTVDLVKGQHKSKEFLQINSLGKLPTLKDGDFILTESSAILIYLSCKYQTPDHWYPSDLQARARVHEYLGWHADCIRGTFGIPLWVQVLGPLIGVQVPEEKVERNRTAMDQALQWLEDKFLGDRPFLAGQQVTLADLMALEELMQPVALGYELFEGRPRLAAWRGRVEAFLGAELCQEAHSIILSILEQAAKKTLPTPSPEAYQAMLLRIARIP [GSTT2B]”: the melting temperature with HeLa Kyoto [2] (cell cycle stage: G1/S) stood at 54.9 °C; with HeLa Kyoto [2] (cell cycle stage: mitosis), 55.1 °C.
